Measurements as given in the supplement of paper PMC9170038.

test system: MS2 coat protein; assay: apparent KD of MS2 coat protein, switch OFF state (with FMN for OFF switches, without FMN for ON switches); designed switch direction (-1 OFF switch, 1 ON switch): 1; higher = weaker reporter binding; settings: FMN input: 0 or 200 uM; Eterna round: R93 (includes R88 designs)
How it was run: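 Designed RNA switches were made by on-chip transcription from Illumina sequencing clusters and then titrated with SNAP-549-labelled MS2 coat protein. Twofold steps ran from 0.7 or 1.5 nM to 3 µM, each lasting 0.8–1.5 h early and 10–20 min late, in 100 mM Tris-HCl pH 7.5, 80 mM KCl, 4 mM MgCl2, without or with constant ligand. Apparent KD is the per-design median of normalised cluster binding-curve fits.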

Sequence	apparent KD of MS2 coat protein [nM]
CGAGUACAUGAGGAUCACCCAUGUUAUGAAUUGUCAGGAUAUGGGUAGAGGUGACAUGCGCCAGAAGGGACGUCUG [JR_SS001_Sub1005]	52.8
AACAAUCUAUCUGAGGAUAUCAUGUAAAAGACAUGAGGAUCACCCAUGUUGCAGGAAACUGCUCAUGAGAAGGCAGAUAGAUUGA [SS2: 1125]	13.8
ACGGUCAAGUGUGAGGAUAUCCAGGCUCCCACAUGAGGAUCACCCAUGUCUUAAAGGGCGUAAAGGGAGAAGGUACGAACGCCAC [Vesolees]	45.3
CAUCAUGCGCCUAAGGAUAUGUCUCACAAGACAUGAGGAUCACCCAUGUAGAAUAAAUAAAUGAUGCAGAAGGUGGAGCGCAUAC [Beusesce]	507
AUAAAUAAAAGAGAGGAUAUCCAAAAUAAAACAUGAGGAUCACCCAUGUAAAAUAAAAUAAAAUGGGAGAAGGCUCAAAAUAAAU [SS2 M 2]	72.1
AACAAUCUAUCUGAGGAUAUAUGUCAAAAGACAUGAGGAUCACCCAUGUAAAAACAUGAAAAAACAUAGAAGGCAGAUAGAUUGA [SS2: 1134]	120
AGAAAACAUGAGGAUCACCCAUGUGACAAUAUGGGAGGAUAUACAAAGACGAAAGUCGAAGUAGAAGGCCUAAAGA [Garnet 52]	69.7
UGUUCGAGUAGUGAGGAUAUUCAUGGGCCCACAUGAGGAUCACCCAUGUAAAGGACCGGGCCGAAGGAGAAGGCGCGUAAAAUUA [Esenan]	73.3
AAAACACAUGAGGAUCACCCAUGUAUCUGGACCAUAGGAUAUCCGCACCCACUAAGGCGUGGAGAAGGGUGAGCCC [Antisoorti]	124
AAAAAAAAAAAUAAGGAUAUGUGAUCGGUGACAUGAGGAUCACCCAUGUAAGGCCUCCGGGACGGGCAGAAGGUAUAAAAAAAAA [Same State2-III]	607
AUAAAACAUGAGGAUCACCCAUGUAGACACGAUGGAGGAUAUACUAGAUCGAAAGAUCUAGUAGAAGGCCGACGUA [Mat - Same State 1 - JL mod - D95]	22.6
AAAAAAAAAUCUCAGGAUAUAGAUUAUAGAACAUGAGGAUCACCCAUGUAGUGAAAGAAGAAAAACUAGAAGGGAGGAAAAAAAAA [Same State 2 #2]	70.8
AAAUAAAUGACUAAGGAUAUAUUAGAGAAAACAUGAGGAUCACCCAUGUAAUAAUAAAAAGGGUGAUAGAAGGUAGUCAACAAAC [74%, More Paria 4]	48.8
AAAAAAAAUGUGUAGGAUAUCAGUAAAAAUACAUGAGGAUCACCCAUGUUCAAAAAAAAAAAAACUGAGAAGGACACGGAUGGUCC [Design 1]	42.6
AAAAAACAUGAGGAUCACCCAUGUAAAAUUAUGGGAGGAUAUGGAAACACGAAAGUGAAACCAGAAGGCCUAAAAG [77%, Mat - Mod of Eli, 11]	49.7
AAUAAACAUGAGGAUCACCCAUGUGGUGGCCCAUGAGGAUAUCCAUGUACAUUGUACACAGGAGAAGGCAUAGCCA [Tioredes]	27
AGAAAACAUGAGGAUCACCCAUGUAGAAAUAUGGGAGGAUAUACAAAGACGAAAGUCAAGGUAGAAGGCCUAAAGA [Mat - Same State 1 - Meechl mod - D124]	99.9
AAAUAACAUGAGGAUCACCCAUGUUACAACAAUACAGGAUAUGUGGGUGAAAAUAGCAUGACAGAAGGGUAAUGUA [SameState1 Malc#32]	79.8
UUACAACAUGAGGAUCACCCAUGUAAACCCGACUAAGGAUAUGGAGUGAAAGAUAUCAUCCCAGAAGGUAGAAAUA [Istegeisis]	53.3
GACAAACAUGAGGAUCACCCAUGUAGAAAUAUGGGAGGAUAUACAAAGACGAAAGUCAAAGUAGAAGGCCUAAAAG [77%, Mat - Mod of Eli - With 1 more C's]	79
AACAAUCUAUCUGAGGAUAUCAUGUCAAAGACAUGAGGAUCACCCAUGUACCAGGAAACUGGAUAUGAGAAGGCAGAUAGAUUGA [SS2: 1119]	204
AGGAAACAUGAGGAUCACCCAUGUAAAAAUAUGGAAGGAUAUGGAAACACGAAAGUGAAACCAGAAGGUUCAAAAA [77%, Mat - Mod of Eli, 22]	24.7

Sequence	apparent KD of MS2 coat protein [nM]
AAUGAACAUGAGGAUCACCCAUGUUCUAAUAGUUGAGGAUAUGUGGGUGAAAAUAGCACGGCAGAAGGCGAGUGUA [SameState1 Malc#19]	80.7
AAUAAUUAUACGAAGGAUAUCGGUAAUUAGACAUGAGGAUCACCCAUGUAAUAUGGUUAAAUAUUCGAGAAGGUCGAGGGUGAAA [JR_SS002_Sub504]	29.4
GAGAAACAUGAGGAUCACCCAUGUAGAAAUAUGGGAGGAUAUACAAAGACGAAAGUCAAAGUAGAAGGCCUAGAAG [77%, Mat - Mod of Eli - With 2 more G's]	51.6
GAAAAACAUGAGGAUCACCCAUGUGAGAAUAUGGGAGGAUAUACAAGGACGAAAGUCAAGGUAGAAGGCCUAAAAG [Mat - Same State 1 - Eli mod - 28]	155
GAGAAGAAGAGAGAGGAUAUCCAAAGGAAAACAUGAGGAUCACCCAUGUAAAAGGUAGGAAAUUGGGAGAAGGCUCAAAGGAGGG [salish99-ss2-031]	29.5
AGGAAACAUGAGGAUCACCCAUGUAUAAAAAUGGAAGGAUAUACUAAGACGAAAGUCAUAGUAGAAGGUUCAAAAA [76%, Meechl, 9]	21.1
GUGGACAUAGGAUAGGAUAUAUGAAUAAUUACAUGAGGAUCACCCAUGUCCAUUUAUAUGGGAACAUAGAAGGGUUGUAGUUAAC [Mat - Same state - Malcolm Mod - D131]	81.9
AAAAAACAUGAGGAUCACCCAUGUAAAAAAAUCGCAGGAUAUAAGGUCGCGAAAGCGACCUUAGAAGGGCGAUCCU [Louisiana 1 - Jieux - Same State 1]	75.8
AAAAAACAUGAGGAUCACCCAUGUGAGAACAUGGGAGGAUAUACAAGGAUGAGAGUCAAGGUAGAAGGCCUAAGAA [Garnet 70]	48.5
GUGGCCUAGGCACAGGAUAUGUUGCUCGUAACAUGAGGAUCACCCAUGUGCCUAUGAGAUUUAAUGCAGAAGGGUGCACGCCACG [Edbeso]	233
AAGAAACAUGAGGAUCACCCAUGUAAUAAUAUGGGAGGAUAUACAAGGACAAUAGUCAAGGUAGAAGGCCUAAGAA [Mat - Same State 1 - Meechl mod - D142]	249
AGAAAACAUGAGGAUCACCCAUGUAGGAAUAUGGGAGGAUAUACAAAGACGAAAGUCAGAGUAGAAGGCCUAAGAA [salish99-SS1-087]	81.8
ACAAAACAUGAGGAUCACCCAUGUAUAAAUAUAACAGGAUAUGGGACUGCCGAUUAGGCACCAGAAGGGUUUUCAC [Atearve]	27.3
AUAAAACAUGAGGAUCACCCAUGUAGAAAUAUGGGAGGAUAUACUAGAUCGAAAGAUCUAGUAGAAGGCCUUUAUG [JL Mod of Eli 5]	49.3
GAGAAACAUGAGGAUCACCCAUGUAGAGAUAUGGGAGGAUAUACAGAGACGAGAGUCAAAGUAGAAGGCCUAGAAG [77%, Mat - Mod of Eli - With 5 more G's]	46.4
GGGAGACAUGAGGAUCACCCAUGUGAAAACGUGCGAGGAUAUGAAUGGAAACCAUACUGUUCAGAAGGCGUUUGUC [Titus Petronius Secundus]	69.2
AAAAGACAUGAGGAUCACCCAUGUAAAAACUUGGGAGGAUAUGCUUGGAAAACAUGCUAUGCAGAAGGCUCUAGUC [SS1 - 14]	123
CGAAGACAUGAGGAUCACCCAUGUCGUCGUAACAGAGGAUAUGGGAACGCCAAGGGCGCAUCAGAAGGCUGAAAAC [Gediaton]	31
AACAAUCUAUCUGAGGAUAUCAUGUGAAAGACAUGAGGAUCACCCAUGUCGCAGGAAACUGCUCAUGAGAAGGCAGAUAGAUUGA [SS2: 1127]	12.5
ACAUGCUGCCGGCAGGAUAUCGCUUGGCGGACAUGAGGAUCACCCAUGUGAGAAAGUCGCGCGCGCGAGAAGGGCCAUGGUAUCAG [SameState2_Neo]	61.1
AAUCCAACUAGUCAGGAUAUCAGGCGUAAGACAUGAGGAUCACCCAUGUCCUUAGUACAAGUAACUGAGAAGGGACAGGGCGACC [JR_SS002_Sub410]	39.5
